Source: patent US6150139A, “Bacterocide compositions and their preparation from micrococcus varians” (priority 1995, dated 2000)

Experiments:
[1] = tested on: strain of Lactococcus lactis which produces lacticin 481; assay: inhibition spectrum test on the lacticin 481 producer; assay type: cell-based
From the text: When the strain of Lactococcus lactis which produces lacticin 481 is inoculated in the presence of a […] extract, as previously described in the inhibition spectrum test, the growth of the said strain is seen to be inhibited. The strain of Lactococcus lactis which produces lacticin 481 is immune to its own bacteriocin, lacticin 481, but is not immune to the […] produced by either of the two Micrococcus varians strains according to the present invention.

[2] = tested on: Lactobacillus bulgaricus (YL 5); assay: inactivation by enzymes, agar well test; assay type: physicochemical; conditions: 60 min, halo after treatment
[3] = tested on: Lactobacillus helveticus (N 2); assay: inactivation by enzymes, agar well test; assay type: physicochemical; conditions: for Inhibition halo diameter after enzyme treatment: 60 min
[4] = tested on: Lactobacillus helveticus (N 2); assay: resistance to heat and to pH, agar well test; assay type: physicochemical; conditions: for Inhibition halo (mm): 115 °C
[5] = tested on: Lactobacillus helveticus (N 2); assay: resistance to heat, agar well test; assay type: physicochemical; conditions: for Inhibition halos (mm): 100 °C, pH 7
Gram-negative bacteria = assay: agar well test, inhibition spectrum, Gram-negative bacteria; assay type: cell-based; conditions: results of Table V
From the text: The inhibition spectrum of the supernatant is thus determined.

[6] = tested on: Lactobacillus helveticus (N 2); assay: resistance to pH, agar well test; assay type: physicochemical; conditions: readjusted to pH 6-7
[7] = Catalase (SIGMA C-10) 5 mg/ml, incubation 30 °C
[8] = Ficin (SIGMA F-3266) 5 mg/ml, incubation 37 °C
[9] = Pronase E (SIGMA P-8038) 5 mg/ml, incubation 37 °C
[10] = Proteinase K (MERCK 1000 144) 5 mg/ml, incubation 37 °C

Substance: lacticin 481
- growth of the lacticin 481-producing strain in presence of bacteriocin [1]: immune

Substance: variacin: bacteriocin from Micrococcus varians strains CNCM I-1586 and CNCM I-1587, amino acid sequence SEQ ID NO:1 (GSGVIPTISHECHMNSFQFVFTCCS)
- Inactivation (mm) [2, 7]: 27 mm
- Inactivation (mm) [2, 8]: 0 mm
- Inactivation (mm) [2, 9]: 0 mm
- Inactivation (mm) [2, 10]: 0 mm
- Inhibition halo diameter after enzyme treatment [3, 7]: 27 mm
- Inhibition halo diameter after enzyme treatment [3, 8]: 0 mm
- Inhibition halo diameter after enzyme treatment [3, 9]: 0 mm
- Inhibition halo diameter after enzyme treatment [3, 10]: 0 mm
- effect of proteolytic enzymes on bactericidal activity ([3]; all proteolytic enzymes of Tables I and II, indicator strains N 2 and YL 5): suppress the bactericidal activity
- influence of catalase on bactericidal activity ([3]; two indicator strains N 2 and YL 5): not found to exert any influence
- Inhibition halo (mm) ([4]; pH 4, 20 min): 27 mm
- bactericidal activity after pH combined with heat ([4]; pH 4 or 7, combined with an elevated temperature): not compromised
- Inhibition halo (mm) ([4]; pH 7, 20 min): 27 mm
- Inhibition halos (mm) ([5]; incubation time 15 min): 27 mm
- Inhibition halos (mm) ([5]; incubation time 30 min): 27 mm
- Inhibition halos (mm) ([5]; incubation time 60 min): 27 mm
- bactericidal activity after heating ([5]; 60 min incubation at 100 °C): not compromised
- inhibitory effect on the growth of Gram-negative bacteria (Gram-negative bacteria): does not exert any inhibitory effect
- Inhibition halos ([6]; pH 2, 37 °C for 60 min): 27 mm
- Inhibition halos ([6]; pH 4, 37 °C for 60 min): 27 mm
- Inhibition halos ([6]; pH 6, 37 °C for 60 min): 27 mm
- Inhibition halos ([6]; pH 8, 37 °C for 60 min): 27 mm
- Inhibition halos ([6]; pH 10, 37 °C for 60 min): 27 mm
